The supplement of paper PMC10126150
± gives the standard deviation of the averaged measurements.

System: ATP
Experiment: switch fluorescence ratio, 500 uM ATP over buffer (Cy3 cluster intensity, sum of 5 cycles each) (fold (ratio)); higher = stronger signal-on switching upon ATP binding; sequences stand for … in TCGTCGGCAGCGTCAGATGTGTATAAGAGACAGTTTTTTTTTTTTTTTTTTTTTTTTT…TC
Settings: aptamer strand: ATP DNA aptamer (quencher-CACCTGGGGGAGTATTGCGGAGGAAGG + anchor), 100 nM annealed; ATP concentration: 500 uM
Summary of the method: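 The fluorescence ratio divides summed target-cycle Cy3 intensity by summed buffer-cycle Cy3 intensity for each cluster and is averaged per switch-domain sequence. Cy3-labelled switching-strand clusters on a modified Illumina MiSeq flow-cell were annealed to 100 nM quencher-labelled ATP aptamer, then imaged in selection buffer and again after 15 min with 500 uM ATP at 22 °C. Five such cycles were run, with NaOH stripping and re-annealing between them, and clusters outside 100-1000 RFU were excluded.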
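Further: ATP exposure 15 min at 22 °C before imaging.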

Sequence	switch fluorescence ratio
GATGGGAAAA	1.01 ± 0.021
GATGGGCTAG	0.997 ± 0.025
GATGGGGGTA	0.973 ± 0.033
GATGGGTTTG	0.991 ± 0.028
GATGGTAATT	1 ± 0.025
GATGGTGTGC	1.15 ± 0.29
GATGGTTAGT	0.974 ± 0.036
GATGTAAACC	1.01 ± 0.02
GATGTAATCT	1.02 ± 0.025
GATGTAATTT	1.03 ± 0.023
GATGTACCTC	1.05 ± 0.0046
GATGTAGCTA	1.033 ± 0.00083
GATGTAGGTG	1.007 ± 0.0071
GATGTAGTAG	1.01 ± 0.042
GATGTCGAGA	1.019 ± 0.0051
GATGTCGCGC	1.01 ± 0.028
GATGTCTGCT	1.019 ± 0.0098
GATGTGATTT	1.08 ± 0.078
GATGTGCTTG	1.01 ± 0.013
GATGTGGGGT	0.987 ± 0.012
GATGTGGTGT	0.984 ± 0.081
GATGTGTGGG	0.9843 ± 0.0015
GATGTGTTCT	0.988 ± 0.042
GATGTTAGGA	0.978 ± 0.034
GATGTTATAA	1 ± 0.029

Sequence	switch fluorescence ratio
GATGTTCCGT	0.9958 ± 0.0049
GATGTTGCTT	1.02 ± 0.055
GATTAAAGGT	1.01 ± 0.025
GATTAACGCT	1.03 ± 0.026
GATTAACGTT	0.971 ± 0.036
GATTAAGGAG	0.995 ± 0.011
GATTAATGTT	1 ± 0.022
GATTACAGCG	1.01 ± 0.02
GATTACGGGG	1.006 ± 0.0014
GATTAGATGT	0.9917 ± 0.0067
GATTAGGGGT	0.99655 ± 0.00059
GATTATATCT	0.981 ± 0.033
GATTATCAGA	0.988 ± 0.027
GATTATCTCG	0.99 ± 0.049
GATTATGAGT	1.02 ± 0.018
GATTATGGTT	0.9891 ± 0.003
GATTATTGGT	0.987 ± 0.031
GATTATTTGT	1.03 ± 0.022
GATTCAAACG	1.006 ± 0.0073
GATTCACGA	0.984 ± 0.015
GATTCAGGGG	1.04 ± 0.026
GATTCAGTAC	1.61 ± 0.056
GATTCCGTGT	1.01 ± 0.031
GATTCGGCGT	0.9867 ± 0.0067
GATTCGGCTA	1.02 ± 0.021

Sequence	switch fluorescence ratio
GATTCTCAAG	0.9746 ± 0.0056
GATTCTTTAC	1.03 ± 0.029
GATTGAGACT	1.01 ± 0.026
GATTGAGCTG	1.02 ± 0.043
GATTGATAGG	0.99961 ± 0.00019
GATTGCAAGG	1.02 ± 0.02
GATTGCACTT	1.02 ± 0.031
GATTGCAGGA	0.9989 ± 0.0039
GATTGCATGC	1.032 ± 0.0014
GATTGGCTGT	0.966 ± 0.029
GATTGGGGCA	1.02 ± 0.046
GATTGGGGCG	1.02 ± 0.015
GATTGGTAGG	0.981 ± 0.017
GATTGTAAGA	1.16 ± 0.2
GATTGTAGGC	1.03 ± 0.011
GATTGTCCGT	0.981 ± 0.031
GATTTAAAAT	1.013 ± 0.0083
GATTTAAAGG	1.04 ± 0.025
GATTTAGAAT	1.01 ± 0.012
GATTTAGCTG	1 ± 0.035
GATTTAGTAA	0.9759 ± 0.0069
GATTTATACT	1.06 ± 0.014
GATTTATTCG	0.983 ± 0.014
GATTTATTTG	0.989 ± 0.048
GATTTCGATG	1.01 ± 0.013

Sequence	switch fluorescence ratio
GATTTCGGGA	1.01 ± 0.04
GATTTCGTAT	0.98 ± 0.014
GATTTCTTAT	0.999 ± 0.052
GATTTGGGTT	1.02 ± 0.041
GATTTGTTGG	0.9815 ± 0.0055
GATTTGTTTG	0.985 ± 0.026
GATTTTAGTC	0.993 ± 0.04
GATTTTCAGT	0.975 ± 0.013
GATTTTCCAT	1.03 ± 0.021
GATTTTGACG	1.04 ± 0.067
GATTTTGGAT	0.994 ± 0.012
GATTTTGGCG	1.01 ± 0.046
GATTTTTAGG	0.964 ± 0.015
GATTTTTATC	1.023 ± 0.0031
GATTTTTGGC	0.9945 ± 0.0087
GATTTTTTAC	0.995 ± 0.037
GCAAAAAATT	1.01 ± 0.025
GCAAAAAGGC	1.03 ± 0.015
GCAAAACGGG	1.02 ± 0.069
GCAAAATTGG	1.04 ± 0.02
GCAAACGTTA	1.07 ± 0.043
GCAAAGGGCT	1 ± 0.035
GCAAATGCGT	1.03 ± 0.059
GCAACCACCG	1.137 ± 0.0038
GCAAGAACAG	1.04 ± 0.036

Sequence	switch fluorescence ratio
GCAAGAGATA	1.02 ± 0.017
GCAAGGAGCG	1.03 ± 0.039
GCAAGGAGGA	0.996 ± 0.014
GCAAGTGCAC	0.978 ± 0.04
GCAAGTTACG	1.14 ± 0.041
GCAAGTTAGA	1 ± 0.017
GCAAGTTGGG	1.01 ± 0.028
GCAATAATGC	1.603 ± 0.014
GCAATGATGT	1.06 ± 0.03
GCAATGGTAC	2.21 ± 0.098
GCAATGTAGG	1.04 ± 0.03
GCAATTGCTG	0.9802 ± 0.0023
GCAATTTAGA	1.02 ± 0.016
GCAATTTCAG	1.05 ± 0.021
GCACACCAGT	1.04 ± 0.014
GCACACCGAG	1.083 ± 0.0059
GCACATGGCA	1.02 ± 0.015
GCACATGGTG	1.05 ± 0.021
GCACATTATG	0.985 ± 0.011
GCACCAAGGA	1.07 ± 0.036
GCACCTATAT	1.04 ± 0.039
GCACGCAACT	1.32 ± 0.013
GCACGCGGGG	1.009 ± 0.0015
GCACGCTAGG	1.07 ± 0.041
GCACGTTTTT	1 ± 0.03

Sequence	switch fluorescence ratio
GCAGAAGGTA	1.01 ± 0.029
GCAGAGGGC	1 ± 0.012
GCAGAGGGGA	0.981 ± 0.039
GCAGAGTCGT	0.999 ± 0.037
GCAGCAGGGT	1.101 ± 0.0034
GCAGCCGAGT	1.013 ± 0.0098
GCAGGAATTC	1.05 ± 0.042
GCAGGACGGG	1.4 ± 0.64
GCAGGAGGGG	0.965 ± 0.074
GCAGGGATAC	3.4 ± 0.048
GCAGGGATGA	0.994 ± 0.0052
GCAGGGGCTG	1.02 ± 0.016
GCAGGGGGCG	1.04 ± 0.051
GCAGGGGGGC	1.03 ± 0.035
GCAGGGTAGC	1.04 ± 0.012
GCAGGGTGGG	1.02 ± 0.028
GCAGGTCAAT	1.03 ± 0.018
GCAGGTCGCG	1.01 ± 0.024
GCAGGTTGAC	1.034 ± 0.003
GCAGGTTGAG	1.01 ± 0.044
GCAGGTTGGC	0.992 ± 0.029
GCAGTACTTT	1.5 ± 0.12
GCAGTAGCAA	1.08 ± 0.03
GCAGTATAGC	0.99 ± 0.011
GCAGTATGGG	1 ± 0.028

Sequence	switch fluorescence ratio
GCAGTATTCC	1.66 ± 0.11
GCAGTCCCGT	1.03 ± 0.015
GCAGTTAGTT	1.01 ± 0.033
GCAGTTGGAA	1.058 ± 0.0089
GCATAAGGGT	1.01 ± 0.038
GCATATCCGG	1.02 ± 0.011
GCATATGATC	1.05 ± 0.021
GCATATTTTG	0.994 ± 0.029
GCATCAATGG	1.06 ± 0.014
GCATCATTCA	1.03 ± 0.017
GCATCATTTA	1.009 ± 0.0059
GCATCCTGGA	0.969 ± 0.058
GCATGAACAT	0.98 ± 0.026
GCATGAGAGG	0.987 ± 0.021
GCATGAGGGT	1.03 ± 0.072
GCATGCGGGA	1.02 ± 0.074
GCATGGAAGA	0.992 ± 0.015
GCATGGCTGG	1.017 ± 0.00012
GCATGGGCTG	1.04 ± 0.019
GCATGGGGCG	1.037 ± 0.0041
GCATGGGGTG	1.069 ± 0.0081
GCATGGGGTT	0.998 ± 0.031
GCATGTGTAT	1.01 ± 0.031
GCATTAAAGT	0.958 ± 0.033
GCATTAAGAA	1.01 ± 0.018

Sequence	switch fluorescence ratio
GCATTAAGGA	1.058 ± 0.008
GCATTACTTG	1.16 ± 0.027
GCATTAGGGA	0.989 ± 0.024
GCATTCCGAA	1.22 ± 0.028
GCATTGAGTG	0.978 ± 0.03
GCATTGGCGG	0.993 ± 0.044
GCATTGGGGG	0.995 ± 0.041
GCATTTGAAA	0.978 ± 0.011
GCATTTGCTG	0.9719 ± 0.0044
GCATTTGGCC	0.999 ± 0.012
GCATTTTCTG	1.02 ± 0.026
GCCAAAACCT	2 ± 0.76
GCCAAATTTT	0.955 ± 0.035
GCCAACCACT	1.03 ± 0.025
GCCAATACCA	1.22 ± 0.013
GCCAATAGTT	1.046 ± 0.0073
GCCAATGGTT	1.08 ± 0.16
GCCAATGTGG	1 ± 0.051
GCCACAGTCG	1.01 ± 0.022
GCCACATTTT	0.945 ± 0.01
GCCACCGTTT	1.06 ± 0.021
GCCAGCAGCT	0.967 ± 0.014
GCCAGCCGTT	1.014 ± 0.0038
GCCAGGGCTG	1 ± 0.024
GCCAGGGCTT	1.03 ± 0.036
